In article PMC4521159:

Assays:
[1] = molecular target: α-synuclein oligomers formed during incubation with IDE (37 °C, 48 h, agitation) (UniProt P37840)
[2] = molecular target: α-synuclein oligomers formed during incubation with IDE (37 °C, 48 h, agitation) (UniProt P37840); remark: listed apart in the source
[3] = molecular target: pre-formed α-synuclein oligomers (formed with the small molecule FN075) (UniProt P37840); test: ITC; 200 μM IDE in the syringe, 20 μM pre-formed α-synuclein oligomers (FN075) in the cell; 20 or 30 °C; 20 mM phosphate pH 7.4, 140 mM NaCl

ThT fluorescence of 70 μM α-synuclein after 48 h (37 °C, agitation) with 0.2-6.0 μM IDE; half maximal inhibition of amyloid formation (molar ratio IDE to α-synuclein) [1]: 0.025
kcat of 1 μM IDE on fluorogenic substrate V after 48 h pre-incubation with 0-100 μM α-synuclein (0.020 without; highest at 100 μM) [2]: 0.058 s⁻¹
kcat of 3 μM IDE on fluorogenic substrate V after 48 h pre-incubation with 0-70 μM α-synuclein (0.241 without; highest at 35 μM) [2]: 0.397 s⁻¹
kcat/KM of 1 μM IDE on fluorogenic substrate V after 48 h pre-incubation with 0-100 μM α-synuclein (1010 without; highest at 100 μM) [2]: 1190 M⁻¹ s⁻¹
kcat/KM of 3 μM IDE on fluorogenic substrate V after 48 h pre-incubation with 0-70 μM α-synuclein (25400 without; highest at 35 μM) [2]: 30500 M⁻¹ s⁻¹
stoichiometry N (IDE molecules per α-synuclein oligomer) [3]: 3
Substance: Insulin-degrading enzyme (IDE) (from UniProt P14735 1-1019)
